US12319739 (F STAR DELTA, dated 2025)
Substitutions are numbered along the chain they refer to. Blank lines part the entries; values can stand above or below the binder they belong to.

What was measured:
[1] = molecular target: T1, endogenous cell surface human MSLN (human, UniProt Q13421 296-598); assay: flow cytometry, NCI-H226 cells
T1 construct: whole, on cells; The cell line is named under assay; also called cell-surface MSLN on NCI-H226, OVCAR-3 and AsPC-1 cells

[2] = molecular target: T2, hMSLN-His-Avi (human, UniProt Q13421 296-598, single biotin on the Avi tag in the biotinylated form); assay: SPR, mAb2 captured on Protein G, hMSLN-His-Avi in solution
T2 construct: Monomeric; also called human MSLN-His-Avi; hMSLN-Avi-His
T2 sequence (Q13421 other isoform, or with tags, fused parts or gaps): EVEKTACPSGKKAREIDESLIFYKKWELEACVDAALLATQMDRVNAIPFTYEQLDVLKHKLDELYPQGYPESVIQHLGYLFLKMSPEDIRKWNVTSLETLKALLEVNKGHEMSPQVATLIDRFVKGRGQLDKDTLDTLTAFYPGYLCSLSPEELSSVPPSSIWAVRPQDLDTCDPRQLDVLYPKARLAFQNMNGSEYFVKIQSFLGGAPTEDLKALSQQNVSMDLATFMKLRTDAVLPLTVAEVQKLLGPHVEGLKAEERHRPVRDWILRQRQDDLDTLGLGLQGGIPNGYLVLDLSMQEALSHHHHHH
Description: (§1) The association time was 5 min and the dissociation time was 5 min. Running buffer was HBS-EP (GE Healthcare BR100188). Flow cells were regenerated by injecting Glycine-HCl pH2.1 at a flow rate of 30 μl/min for 15 seconds. The data was analysed as described in Example 7.1.

[3] = molecular target: T1, endogenous cell surface human MSLN; assay: flow cytometry, NCI-H226 cells + 20 nM soluble MSLN
[4] = molecular target: T3, cMSLN-His-Avi (cynomolgus, single biotin on the Avi tag in the biotinylated form); assay: SPR, mAb2 captured on Protein G, MSLN in solution
T3 construct: Monomeric; also called cyno MSLN-His-Avi; cMSLN-Avi-His
T3 chain: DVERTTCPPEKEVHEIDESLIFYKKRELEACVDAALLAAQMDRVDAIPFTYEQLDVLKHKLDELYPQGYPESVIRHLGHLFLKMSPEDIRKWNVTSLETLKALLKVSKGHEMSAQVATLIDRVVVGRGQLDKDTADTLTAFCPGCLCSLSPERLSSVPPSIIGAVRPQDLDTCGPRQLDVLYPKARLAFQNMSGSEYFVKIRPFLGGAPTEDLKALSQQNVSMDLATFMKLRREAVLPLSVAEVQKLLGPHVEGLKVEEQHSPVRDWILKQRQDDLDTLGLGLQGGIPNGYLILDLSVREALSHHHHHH
Description: as §1

[5] = molecular target: T4, human CD137 on primary human CD8+ T cells (human, UniProt Q07011 24-255); assay: cell-based or functional assay
T4 sequence (Q07011 24-255): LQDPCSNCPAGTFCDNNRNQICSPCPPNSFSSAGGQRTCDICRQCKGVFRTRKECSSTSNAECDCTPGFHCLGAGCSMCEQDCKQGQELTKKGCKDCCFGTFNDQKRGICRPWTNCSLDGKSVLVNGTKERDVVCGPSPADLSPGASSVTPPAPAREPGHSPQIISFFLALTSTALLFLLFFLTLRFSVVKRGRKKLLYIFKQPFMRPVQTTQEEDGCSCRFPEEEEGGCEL

[6] = molecular target: T3, cMSLN-His-Avi; assay: SPR, mAb2 captured on Protein G, cMSLN-His-Avi in solution
Description: as §1

[7] = molecular target: T2, hMSLN-His-Avi; assay: ratio of SPR KDs
[8] = molecular target: T2, hMSLN-His-Avi; assay: SPR, hMSLN-His-Avi immobilised ~100 RU, mAb2 injected
[9] = molecular target: T5, mMSLN-His-Avi (mouse, UniProt Q61468 298-600, single biotin on the Avi tag in the biotinylated form); assay: SPR, mAb2 captured by anti-human Fc, mMSLN-His-Avi in solution
T5 construct: also called mouse MSLN-His-Avi
T5 sequence: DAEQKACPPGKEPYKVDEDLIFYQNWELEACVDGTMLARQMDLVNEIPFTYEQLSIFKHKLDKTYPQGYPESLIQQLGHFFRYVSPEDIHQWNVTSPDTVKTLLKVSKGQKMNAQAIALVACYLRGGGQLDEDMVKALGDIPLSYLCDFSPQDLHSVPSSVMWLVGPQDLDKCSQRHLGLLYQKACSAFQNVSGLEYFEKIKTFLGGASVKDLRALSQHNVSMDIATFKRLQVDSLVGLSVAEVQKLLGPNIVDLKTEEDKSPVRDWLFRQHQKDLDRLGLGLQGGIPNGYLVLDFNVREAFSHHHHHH
Description: (§2) To determine the affinity for soluble MSLN the mAb^2 was captured via an anti-human Fc. Briefly, 25 µg/ml anti-human IgG (Fc) antibody (GE Healthcare, Human Antibody Capture Kit, BR100839) was immobilised on a Biacore sensor chip CM5 (GE Healthcare, BR100530) achieving a final response of approximately 750 RU. The mAb^2 molecule, diluted in HBS-EP buffer (GE Healthcare, BR100188) at 50 nM, was injected individually at 30 µl/min to achieve a response of approximately 100 RU. The recombinant mMSLN-His-Avi antigen, diluted in HBS-EP buffer, was injected at a concentration range of 243 nM to 0.11 nM with 3-fold dilutions for 5 minutes at 70 µl/min and then allowed to dissociate in buffer for 5 minutes. Regeneration was achieved by injecting 3 M magnesium chloride (GE Healthcare, Human Antibody Capture Kit, BR100839) for 30 seconds at a rate of 30 µl/min.

[10] = molecular target: T5, mMSLN-His-Avi; assay: ratio of SPR KDs
Description: as §2

[11] = molecular target: T5, mMSLN-His-Avi; assay: SPR, mMSLN-His-Avi immobilised at 50 RU
[12] = molecular target: T4, human CD137 on primary human CD8+ T …; assay: cell-based or functional assay; remark: listed apart in the source
[13] = molecular target: T1, endogenous cell surface human MSLN; assay: flow cytometry, NCI-H226 cells; remark: listed apart in the source
[14] = molecular target: T2, hMSLN-His-Avi; assay: SPR, hMSLN-His-Avi immobilised ~100 RU, mAb2 injected; immobilised human MSLN (antigen capture), not MSLN in solution
Description: 7.1 Binding of CD137/MSLN mAb2 to Human MSLN Under Avid Conditions—Antigen Capture Method Binding of all mAb^2 to MSLN immobilised on a BIAcore chip was tested to determine the binding affinity to human MSLN under avid conditions, where a high concentration of immobilised antigen is available to allow the antibody to bind avidly. […] The association time was 5 min and the dissociation time was 10 min. Running buffer was HBS-EP (GE Healthcare BR100188). Flow cells were regenerated by injecting Glycine-HCl pH1.5 at a flow rate of 30 μl/min for 30 seconds. Data were analysed by double referencing against a flow cell which was intentionally left blank (no antigen coating). The binding kinetics were fitted with a 1:1 Langmuir model to generate binding association (k_a) and dissociation (k_d) rates. Equilibrium binding constants (K_D) were calculated by dividing the dissociation rate by the association rate for each sample. Data analysis was performed with BiaEvaluation software version 3.2.

[15] = molecular target: T2, hMSLN-His-Avi; assay: SPR, hMSLN-His-Avi immobilised
[16] = molecular target: T1, endogenous cell surface human MSLN; assay: flow cytometry, AsPC-1 cells
[17] = molecular target: T2, hMSLN-His-Avi; assay: SPR, hMSLN-His-Avi in solution
[18] = molecular target: T2, hMSLN-His-Avi; assay: ratio of SPR KDs; remark: listed apart in the source
[19] = molecular target: T1, endogenous cell surface human MSLN; assay: flow cytometry, OVCAR-3 cells
[20] = molecular target: T3, cMSLN-His-Avi; assay: SPR steady state, antigen immobilised ~50 RU
Description: The association time was 1000 sec to steady state and the dissociation time was 30 sec. Running buffer was HBS-EP (GE Healthcare BR100188). Flow cells were regenerated by injecting Glycine-HCl pH1.5 at a flow rate of 30 μl/min for 30 seconds. Data were analysed by double referencing against a flow cell which was intentionally left blank (no antigen coating). Steady state affinity model was used to analyse kinetic data using the BiaEvaluation software version 3.2.

[21] = molecular target: T4, human CD137 on primary human CD8+ T …; assay: cell-based or functional assay; remark: listed apart in the source
[22] = molecular target: T6, hCD137-mFc-Avi (human; mouse, UniProt Q07011 24-186, one biotin on each Avi tag in the biotinylated form); assay: SPR, mAb2 captured by anti-human Fab, hCD137-mFc-Avi in solution
T6 construct: also called human dimeric CD137; human CD137-mFc-Avi
T6 sequence (Q07011 24-186): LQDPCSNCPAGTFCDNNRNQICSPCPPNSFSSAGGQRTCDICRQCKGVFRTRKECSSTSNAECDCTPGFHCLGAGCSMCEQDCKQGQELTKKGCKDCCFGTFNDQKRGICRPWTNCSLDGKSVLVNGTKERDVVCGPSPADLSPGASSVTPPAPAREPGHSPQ
Description: A Biacore CM5 chip was coated with anti-human Fab using a Human Fab Capture Kit (GE Healthcare 28958325) according to manufacturer's conditions, to a surface density of approximately 9000 RU. […] The association time was 5 min and the dissociation time was 5 min. Running buffer was HBS-EP. Flow cells were regenerated by injecting two repeat injections of 10 mM glycine-HCl at pH 2.1 at a flow rate of 30 μl/min for 30 seconds. Data analysis was performed as described in earlier examples (see e.g. Example 7.1).

[23] = molecular target: T4, human CD137 on primary human CD8+ T …; assay: cell-based or functional assay; remark: listed apart in the source

T1 sequence (Q13421 other isoform, or with tags, fused parts or gaps limits assumed): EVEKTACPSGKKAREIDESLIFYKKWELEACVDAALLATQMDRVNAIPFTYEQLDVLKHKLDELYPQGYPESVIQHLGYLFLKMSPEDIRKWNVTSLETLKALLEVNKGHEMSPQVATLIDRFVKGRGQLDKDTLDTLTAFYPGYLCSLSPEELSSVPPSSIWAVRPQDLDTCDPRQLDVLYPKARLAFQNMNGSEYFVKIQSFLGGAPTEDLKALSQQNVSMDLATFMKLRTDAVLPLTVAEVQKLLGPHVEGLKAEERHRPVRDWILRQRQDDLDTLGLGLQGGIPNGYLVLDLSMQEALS

- EC50 [1]: 0.695 nM
- Emax (MFI) [1]: 840000 MFI
- Kd [2]: 4.27 nM
- EC50 [3]: 4.69 nM
- Emax (MFI) [3]: 930000 MFI
- fold less cross reactive compared to human MSLN [4]: 54 fold
- Emax (IL-2 pg/ml), NCI-H226 co-culture, Donor A [5]: 1400 pg/mL
- Emax (IL-2 pg/ml), NCI-H226 co-culture, Donor B [5]: 1940 pg/mL
- IL-2 release EC50, NCI-H226 co-culture, Donor A [5]: 0.04 nM
- IL-2 release EC50, NCI-H226 co-culture, Donor B [5]: 0.06 nM
- Kd [6]: 230 nM
- KD ratio in solution/immobilised human MSLN [7]: 33
- Kd [8]: 0.13 nM
B1: FS22-172-003-AA/FS28-024-060 (bispecific antibody, human IgG1, kappa, L234A L235A, V domains shown)
VH: EVQLLESGGGLVQPGGSLRLSCAASGFTLSYSSMSWVRQAPGKGLEWVSFITPSTGYTHYADSVKGRFTISRDNSKNTLYLQMNSLRAEDTAVYYCARRALWFDYWGQGTLVTVSS
VL: EIVLTQSPGTLSLSPGERATLSCRASQSVSSSYLAWYQQKPGQAPRLLIYGASSRATGIPDRFSGSGSGTDFTLTISRLEPEDFAVYYCQQASSYPLTFGQGTKVEIKR
notes: IgG1 mAb^2 with LALA

- Kd [9]: 252 nM
- ratio of KD in solution/immobilised [10]: 31.9
- Kd [11]: 7.9 nM
B2: FS22m-063-AA/FS28m-228 (bispecific antibody, human IgG1, kappa, L234A L235A, V domains shown)
VH: EVQLLESGGGLVQPGGSLRLSCAASGFTFSTYFMVWVRQAPGKGLEWVSMISPKSSNTYYADSVKGRFTISRDNSKNTLYLQMNSLRAEDTAVYYCARWFTPARFDYWGQGTLVTVSS
VL: B1 VL with A92P, S93F, S94P, Y95F, P96S, L97F
notes: IgG1 mAb^2 with LALA; also called anti-mouse CD137/MSLN mAb^2

- Kd [9]: 60.2 nM
- ratio of KD in solution/immobilised [10]: 23.2
- Kd [11]: 2.6 nM
B3: FS22m-063-AA/FS28m-228-010 (bispecific antibody, human IgG1, kappa, L234A L235A, V domains shown)
VH: B2 VH with W99Y, F100H, T101I, P102S, A103P
VL: B1 VL with A92P, S93F, S94P, Y95F, P96S, L97F
notes: IgG1 mAb^2 with LALA

- fold change of IL-2 EC50 with soluble MSLN against none, NCI-H226 co-culture [12]: 3 fold
- Kd [2]: 18.2 nM
- EC50 [13]: 0.304 nM
- Kd [14]: 5.9 nM
- Kd [15]: 5.9 nM
- EC50 [16]: 0.293 nM
- KD ratio in solution/immobilised human MSLN [7]: 3
- Kd [17]: 18.2 nM
- ratio of KD in solution/immobilised [18]: 3
- EC50 [19]: 0.306 nM
- fold difference of binding to cMSLN against hMSLN [20]: ≤ 3 fold
- IL-2 release EC50, NCI-H226 co-culture, +2 nM sMSLN [21]: 0.139 nM
- IL-2 release EC50, NCI-H226 co-culture, +20 nM sMSLN [21]: 0.353 nM
- IL-2 release EC50, NCI-H226 co-culture, no sMSLN [21]: 0.117 nM
- Kd [22]: 1.26 nM
- IFNγ production EC50 (96 h), AsPC-1 co-culture, Donor G [23]: 0.147 nM
- IFNγ production EC50 (96 h), AsPC-1 co-culture, Donor H [23]: 0.164 nM
- IFNγ production EC50 (96 h), AsPC-1 co-culture, Donor J [23]: 0.344 nM
- IFNγ production EC50 (96 h), NCI-H226 co-culture, Donor G [23]: 0.0332 nM
- IFNγ production EC50 (96 h), NCI-H226 co-culture, Donor H [23]: 0.0732 nM
- IFNγ production EC50 (96 h), OVCAR-3 co-culture, Donor H [23]: 0.084 nM
- IL-2 production EC50 (72 h), AsPC-1 co-culture, Donor C [23]: 0.778 nM
- IL-2 production EC50 (72 h), AsPC-1 co-culture, Donor D [23]: 0.841 nM
- IL-2 production EC50 (72 h), NCI-H226 co-culture, Donor C [23]: 0.111 nM
- IL-2 production EC50 (72 h), NCI-H226 co-culture, Donor D [23]: 0.112 nM
- IL-2 production EC50 (72 h), NCI-H226 co-culture, Donor E [23]: 0.0722 nM
- IL-2 production EC50 (72 h), NCI-H226 co-culture, Donor F [23]: 0.0723 nM
- IL-2 production EC50 (72 h), OVCAR-3 co-culture, Donor E [23]: 0.145 nM
- IL-2 production EC50 (72 h), OVCAR-3 co-culture, Donor F [23]: 0.0693 nM
B4: FS22-172-003-AA/FS28-256-271 (bispecific antibody, human IgG1, kappa, L234A L235A, V domains shown)
VH: EVQLLESGGGLVQPGGSLRLSCAASGFTFTHTYMSWVRQAPGKGLEWVSAISPTYSTTNYADSVKGRFTISRDNNKNTLYLQMNSLRAEDTAVYYCARYNAYHAALDYWGQGTLVTVSS
VL: B1 VL with A92T, S93V, S94P, L97Y
notes: IgG1 mAb^2 with LALA; also called anti-human CD137/MSLN mAb^2
